Results from patent US20200095333A1.

Target: human serum albumin (HSA) (human) (UniProt P02768)
Experiment: HSA binding class, Table 23

## ABD L64G/I65A/V71A (from UniProt P19909 254-299)
  HSA binding: < 0.1
